Results on 31 molecules are retold here after PMC10786891, “Massively parallel profiling of RNA-targeting CRISPR-Cas13d”.

Residue numbers refer to the chain shown, from its start. Names may count otherwise.

To fix the notation:
T1: EsCas13d, nuclease-dead (Eubacterium siraeum, UniProt B0MS50, R295A;H300A;R849A;H854A)
T1 sequence: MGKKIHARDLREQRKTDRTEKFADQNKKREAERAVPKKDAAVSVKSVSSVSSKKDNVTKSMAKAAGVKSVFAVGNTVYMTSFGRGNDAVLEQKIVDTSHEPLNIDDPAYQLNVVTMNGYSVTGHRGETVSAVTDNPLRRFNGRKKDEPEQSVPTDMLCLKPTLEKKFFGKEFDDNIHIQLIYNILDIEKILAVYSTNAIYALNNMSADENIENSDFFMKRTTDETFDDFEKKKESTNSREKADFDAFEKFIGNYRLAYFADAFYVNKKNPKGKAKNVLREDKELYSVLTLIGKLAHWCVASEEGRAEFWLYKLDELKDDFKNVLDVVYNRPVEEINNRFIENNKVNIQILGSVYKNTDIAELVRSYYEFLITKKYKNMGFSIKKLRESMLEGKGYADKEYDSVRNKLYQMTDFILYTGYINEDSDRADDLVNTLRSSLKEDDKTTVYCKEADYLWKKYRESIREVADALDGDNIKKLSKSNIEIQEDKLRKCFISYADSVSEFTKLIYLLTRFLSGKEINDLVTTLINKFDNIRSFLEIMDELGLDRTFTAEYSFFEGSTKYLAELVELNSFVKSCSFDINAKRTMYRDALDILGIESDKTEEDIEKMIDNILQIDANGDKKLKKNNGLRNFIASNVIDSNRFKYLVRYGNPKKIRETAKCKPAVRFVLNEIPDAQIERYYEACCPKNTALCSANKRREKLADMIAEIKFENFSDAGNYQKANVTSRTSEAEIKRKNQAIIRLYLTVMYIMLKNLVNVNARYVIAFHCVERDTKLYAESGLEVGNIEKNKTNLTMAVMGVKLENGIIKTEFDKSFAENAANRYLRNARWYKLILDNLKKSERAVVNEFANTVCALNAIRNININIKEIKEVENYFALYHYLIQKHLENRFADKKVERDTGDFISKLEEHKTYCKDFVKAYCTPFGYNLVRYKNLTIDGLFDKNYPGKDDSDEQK

B1: target 1 insU 3' of 21,insG 3' of 1 (mixed)
RNA 1: CACCCGUGCAAAAAUGCAGGGGUCUAAAACUGAGCGGAUAACCUCUCUAUGG
RNA 2: GGGAAUGGAUCCACAUCUACGAAUUCGUACCUAUAGAGAGGUUAUCCGCUCAGCCGAGAUCGGAAGAGCACACGU
B2: target 1 insU 3' of 21,insC 3' of 1 (mixed)
RNA 1: B1 RNA 1
RNA 2: B1 RNA 2 with G53C
B3: target 1 U3A,U8G (mixed)
RNA 1: B1 RNA 1
RNA 2: GGGAAUGGAUCCACAUCUACGAAUUCGUACCAUAGAGAGGUUAGCCGCACACCGAGAUCGGAAGAGCACACGU
B4: target 3 C6U,U22C (mixed)
RNA 1: CACCCGUGCAAAAUUGCAGGGGUCUAAAACGACCUGAAUAUUUCAGAUCAAA
RNA 2: GGGAAUGGAUCCACAUCUACGAAUUCGUUCUUGAUCUGAAAUAUUUAGGUCUGCAGAUCGGAAGAGCACACGU
B5: target 3 insA 3' of 7,insU 3' of 6 (mixed)
RNA 1: B4 RNA 1
RNA 2: GGGAAUGGAUCCACAUCUACGAAUUCGUUUUUGAUCUGAAAUAUUACUAGGUCUGCAGAUCGGAAGAGCACACGU
B6: target 3 U2A,U21C (mixed)
RNA 1: B4 RNA 1
RNA 2: B4 RNA 2 with C30U, U31C, U46C, U50A
B7: target 3 insA 3' of 21,insA 3' of 3 (mixed)
RNA 1: B4 RNA 1
RNA 2: GGGAAUGGAUCCACAUCUACGAAUUCGUUUUAUGAUCUGAAAUAUUCAGGAUCUGCAGAUCGGAAGAGCACACGU
B8: target 3 A18G,U22A (mixed)
RNA 1: B4 RNA 1
RNA 2: B4 RNA 2 with C30A, A34G, U46C
B9: target 3 insU 3' of 11,insU 3' of 4 (mixed)
RNA 1: B4 RNA 1
RNA 2: B5 RNA 2 with A43U, U44A, A46U, U48A, A49G, G50U
B10: target 3 C6A,A11G (mixed)
RNA 1: B4 RNA 1
RNA 2: B4 RNA 2 with C30U, A41G, U46A
B11: target 3 insA 3' of 15,insG 3' of 2 (mixed)
RNA 1: B4 RNA 1
RNA 2: B7 RNA 2 with A32U, U33G, G34A, A35U, U36C, C37U, U38A, A51U, U52G
B12: target 3 insA 3' of 3,insA 3' of 3 (mixed)
RNA 1: B4 RNA 1
RNA 2: B5 RNA 2 with A46C, C47A, U48G, A49G, G50A, G51A
B13: target 3 insC 3' of 22,insC 3' of 4 (mixed)
RNA 1: B4 RNA 1
RNA 2: B7 RNA 2 with U31C, A32U, G50C, A51G
B14: target 3 insU 3' of 4,insC 3' of 3 (mixed)
RNA 1: B4 RNA 1
RNA 2: B5 RNA 2 with A46C, C47A, U48G, A49U, G51C
B15: target 3 insU 3' of 5,insC 3' of 4 (mixed)
RNA 1: B4 RNA 1
RNA 2: B5 RNA 2 with A46C, C47A, A49G, G50C
B16: target 3 insU 3' of 19 (mixed)
RNA 1: B4 RNA 1
RNA 2: GGGAAUGGAUCCACAUCUACGAAUUCGUUUUUGUAUCUGAAAUAUUCAGGUCUGCAGAUCGGAAGAGCACACGU
B17: target 3 U2G,A18G (mixed)
RNA 1: B4 RNA 1
RNA 2: B4 RNA 2 with C30U, A34G, U46C, U50G
B18: target 3 insC 3' of 11,insC 3' of 2 (mixed)
RNA 1: B4 RNA 1
RNA 2: B5 RNA 2 with U42C, A43U, U44A, A46U, U48A, A49G, G51U, U52C
B19: target 3 insC 3' of 9,insU 3' of 6 (mixed)
RNA 1: B4 RNA 1
RNA 2: B5 RNA 2 with U44C, A46U
B20: target 3 U2A,A12C (mixed)
RNA 1: B4 RNA 1
RNA 2: B4 RNA 2 with C30U, A40C, U46C, U50A
B21: target 3 G4C,A5C (mixed)
RNA 1: B4 RNA 1
RNA 2: B4 RNA 2 with C30U, U46C, A47C, G48C
B22: target 3 A5G,U21A (mixed)
RNA 1: B4 RNA 1
RNA 2: B4 RNA 2 with C30U, U31A, U46C, A47G
B23: target 3 insA 3' of 15,insC 3' of 2 (mixed)
RNA 1: B4 RNA 1
RNA 2: B7 RNA 2 with A32U, U33G, G34A, A35U, U36C, C37U, U38A, A51U, U52C
B24: target 3 G3C,U22A (mixed)
RNA 1: B4 RNA 1
RNA 2: B4 RNA 2 with C30A, U46C, G49C
B25: target 3 insA 3' of 2,insA 3' of 2 (mixed)
RNA 1: B4 RNA 1
RNA 2: B5 RNA 2 with A46C, C47A, U48G, A49G, G50U, G51A, U52A
B26: target 3 U2G,C6G (mixed)
RNA 1: B4 RNA 1
RNA 2: B4 RNA 2 with C30U, U46G, U50G
B27: target 3 insC 3' of 11,insG 3' of 5 (mixed)
RNA 1: B4 RNA 1
RNA 2: B5 RNA 2 with U42C, A43U, U44A, A46U, U48A, A49G
B28: target 3 G4U,U21G (mixed)
RNA 1: B4 RNA 1
RNA 2: B4 RNA 2 with C30U, U31G, U46C, G48U
B29: target 3 C1A,U10G (mixed)
RNA 1: B4 RNA 1
RNA 2: B4 RNA 2 with C30U, U42G, U46C, C51A
B30: target 3 G3U,G4A (mixed)
RNA 1: B4 RNA 1
RNA 2: B4 RNA 2 with C30U, U46C, G48A, G49U
B31: target 3 insA 3' of 22,insA 3' of 3 (mixed)
RNA 1: B4 RNA 1
RNA 2: B7 RNA 2 with U31A, A32U

Usually Kd stands for the concentration at which binding is half-saturated.

The target of the series is T1, EsCas13d, nuclease-dead. The experiment in a line: crRNA (strand 1, pre-loaded); Mg2+; 40 mM Tris-HCl pH 7.5, 150 mM NaCl, 6 mM MgCl2, 1 mM DTT, 0.1% Tween-20, 0.2 mg/ml BSA; 25 C; 10 min per concentration, then washed. The note with it: tags: His6-TwinStrep-SUMO cleaved; N-terminal SNAP kept (SNAP-Surface 488); label: 3' end held by stalled T7 RNA polymerase.
In the case of B1, binding was characterised by a dissociation constant (Kd) of 0.0249 ± 0.0023 µM.
B2: the Kd amounted to 0.0205 ± 0.0008 µM.
In turn, B3 displayed a Kd of 0.0119 ± 0.0005 µM.
Turning to B4, the Kd turned out to be 0.0145 ± 0.00185 µM.
For the molecule B5, the Kd turned out to be 0.0179 ± 0.0012 µM.
In the case of B6 it was 0.0395 ± 0.011 µM.
B7 gave a Kd of roughly 0.069 µM.
Take B8: the Kd stood at 0.0148 ± 0.00175 µM.
B9 returned a Kd of 0.0236 ± 0.00415 µM.
Take B10: binding was characterised by a dissociation constant (Kd) of 0.098 ± 0.023 µM.
To B11 belongs 0.0685 ± 0.0215 µM.
Molecule B12 displayed a Kd of 0.0155 ± 0.00165 µM.
In turn, B13 displayed a Kd of 0.039 ± 0.012 µM.
In the case of B14 it was 0.0174 ± 0.0017 µM; in that of B15, 0.00645 ± 0.00065 µM.
Regarding B16, the Kd stood at 0.078 ± 0.0295 µM.
B17 showed a Kd of 0.0595 ± 0.0075 µM.
Regarding B18, the Kd came out at 0.067 ± 0.01 µM.
B19 registered a Kd of 0.082 ± 0.0145 µM.
Take B20: the affinity, expressed as Kd, was 0.033 ± 0.0055 µM.
Regarding B21, the Kd amounted to 0.13 ± 0.04 µM.
The molecule B22 yielded a Kd of 0.098 ± 0.0445 µM.
B23 displayed a Kd of roughly 0.082 µM.
As for B24, the Kd stood at 0.0165 ± 0.0014 µM.
In the case of B25 it was 0.0304 ± 0.0038 µM; in that of B26, 0.0218 ± 0.0027 µM; in that of B27, 0.0865 ± 0.029 µM.
As for B28, binding was characterised by a dissociation constant (Kd) of 0.065 ± 0.014 µM.
As for B29, the Kd was roughly 0.0905 µM.
To B30 belongs 0.00775 ± 0.00105 µM.
Turning to B31, the dissociation constant Kd came out at 0.0222 ± 0.0044 µM.
